The numbers were not newly measured in PMC5488128 (CPT: Pharmacometrics & Systems Pharmacology, 2017), which cites them from elsewhere.

The conditions of data set [1]: subcutaneously applied, tested up to 30U.
Data set [2] deals with glucose infusion rate (GIR). Particulars: type-1 patients, up to 90U insulin Lispro, GIR recording time of 12 h.

“RHI: subcutaneously (s.c.) administered regular human insulin”: the “dose proportionality of exposure” value in data set [1] is on record as “dose‐proportional”. As to “insulin lispro: prandial insulin analog, comparator in clamp study NCT02470637”, the ED50 in data set [2] is on record as 51 U.
